# Experimental data reported in patent US20160310607A1, “CELL TRANSPORT” (CUPID PEPTIDE COMPANY LIMITED, priority 2013, published 2016).
# What was measured:
# [1] = test system: PTEN; test: Protein phosphorylation response to cyclic AMP in starving Dictyostelium cultures (antibody detection on SDS gels); type: cell-based, Dictyostelium discoideum; settings: pre-treated for 1 hour with 10 micromolar peptide
# From the text: FIG. 10. In starving Dictyostelium cultures, several proteins undergo rapid phosphorylation/dephosphorylation events in response to an applied dose of cyclic AMP. The strength of this response is limited by PTEN enzyme activity. This response is visualised with antibody detection of these phosphoproteins on SDS gels prepared from extracted cultures at the time points indicated after the cAMP dose.
# In starving Dictyostelium cultures, several proteins undergo rapid phosphorylation/dephosphorylation events in response to an applied dose of cyclic AMP. The strength of this initial phosphorylation response is limited by PTEN enzyme activity and is associated with changes in PIP2 and PIP3 inositol phospholipid levels.
# [2] = test system: PTEN; test: Inositol phospholipid levels in starving Dictyostelium cells (solvent extraction, thin layer chromatography); type: cell-based, Dictyostelium discoideum; settings: 10 micromolar, 1 hour, starving wild-type Dictyostelium
# Procedure: FIG. 9. The levels of the 4 inositol phospholipids (PI, PIP, PIP2 and PIP3) in wild-type Dictyostelium cells undergoing starvation were measured by solvent extraction of cell cultures and analysis using thin layer chromatography. The effect of Cupid B-PTEN peptide treatment (10 micromolar, 1 hour) was calculated as a percentage change in the basal (untreated) levels.
# The PTEN protein has a phospholipase enzymatic activity that functions to remove phosphate groups from inositol-based lipids and as such is involved with maintaining the balance between varieties of inositol phospholipids present at the cell surface. In wild-type cells undergoing starvation the inositol phospholipids with 3 and 4 phosphate groups (PIP2 and PIP3) are kept low, largely due to the action of PTEN.
# We determined the effect of Cupid B-PTEN peptide on the inositol phospholipid levels in Dictyostelium cultures. Cupid B-PTEN peptide treated cells (10 micromolar, 1 hour) alters the basal levels of inositol phospholipids in Dictyostelium cells.
# [3] = test system: Dictyostelium discoideum amoeba cells; test: Permeation of FITC-labelled peptides into cultured Dictyostelium cells (fluorescence microscopy); type: cell-based; settings: FITC-labelled peptide, 20 micromolar, 1 hour
# Procedure: Peptides were labelled with Fluorescein isothiocyanate (FITC) using a FITC labeling kit as per instructions (Pierce, UK). When added to cell cultures the labeled peptides were visualized using a fluorescent microscope by exciting the FITC with a 488 nm spectral line, argon-ion laser (Excitation wavelength of 494 nm and an Emission wavelength of 518 nm).
# AX2 wild type Dictyostelium cells were grown on SM agar plates seeded with Aerobacter aerogenes bacteria (also known as Klebsiella aerogenes) as a food source.
# Cupid A ([…]) and Cupid B ([…]) were chemically synthesized labelled with FITC at the amino terminal. The peptides were added to cultured eukaryotic cells of Dictyostelium discoideum amoeba for varying amounts of time up to 2 hours. Cells were then washed and prepared for examination under a fluorescent microscope (FIG. 1). The time courses of permeation were compared to the class 3 CPP, the Antennapedia peptide, pANT which was also labelled with FITC in chemical synthesis (FIG. 2).
# [4] = test system: PTEN; test: Streaming and aggregation of starved wild-type Dictyostelium cultures compared with the PTEN null mutant; type: cell-based, Dictyostelium discoideum; settings: 10 micromolar, wild-type cells, visualised after 10 hours
# Procedure: FIG. 8. Cupid can transport large molecule cargo into the cell. Starved Dictyostelium cultures were plated into petri dishes in starvation buffer and visualised after 10 hours. In untreated wild-type (WT) cultures (A), cells stream together into aggregation centres, co-ordinated by cell to cell signaling.
# In Dictyostelium, a genetic mutant in which the PTEN gene is absent causes marked changes in phenotype.
molecule,measurement,setting,value
"Cupid B-PTEN: Cupid B fused to a 167 amino acid region (C2 region, 186-352) of human PTEN, with 6x Histidine (protein, FITC label, Cupid B fused to a 167 amino acid region (C2 region, 186-352) of human PTEN, with 6x Histidine) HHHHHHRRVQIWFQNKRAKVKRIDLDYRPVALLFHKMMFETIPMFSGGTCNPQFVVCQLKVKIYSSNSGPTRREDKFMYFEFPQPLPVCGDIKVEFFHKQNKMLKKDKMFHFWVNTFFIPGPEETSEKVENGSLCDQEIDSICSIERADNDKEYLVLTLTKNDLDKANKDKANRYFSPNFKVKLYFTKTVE",initial phosphorylation response to cyclic AMP versus untreated cultures,[1],much stronger initial phosphorylation response
same,initial phosphorylation response to cyclic AMP versus untreated cultures,[1]; listed as Cupid-PTEN,much greater phosphorylation response
same,change of PIP2 level relative to untreated basal level,[2],+75%
same,change of PIP3 level relative to untreated basal level,[2],+150%
same,cell permeation (fluorescence microscopy),[3],cell permeable
same,streaming/aggregation behaviour of starved wild-type Dictyostelium,[4],exhibit the same distinctive behaviour as the PTEN-Null strain
same,streaming/aggregation behaviour of starved wild-type Dictyostelium,[4]; listed as Cupid-PTEN,cells failed to stream together or aggregate
